Experimental findings from patent US20180086841A1 (Merck Sharp & Dohme, published 2018) are described below.

Holding throughout (test): flow cytometry on CHO-K1 transfectants;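 also: Anti-hCD27 antibodies tested on transiently transfected CHO-K1 cells bearing hCD27 alanine mutants, 30 min at 4 °C primary incubation, FITC readout excluding debris, dead cells and doublets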
On the technique in general: A flow cytometer gives signals particle by particle.

One experiment addresses T1, V49A.
T1 construct: also called hCD27 V49A
T1 receptor chain: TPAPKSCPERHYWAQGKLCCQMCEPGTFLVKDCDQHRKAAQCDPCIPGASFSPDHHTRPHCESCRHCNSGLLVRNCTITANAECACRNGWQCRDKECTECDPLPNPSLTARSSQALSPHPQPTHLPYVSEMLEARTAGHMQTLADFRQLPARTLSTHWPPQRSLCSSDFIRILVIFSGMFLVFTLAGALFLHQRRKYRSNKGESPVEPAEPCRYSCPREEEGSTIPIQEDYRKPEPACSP

In the next experiment the target is T2, K38A.
T2 construct: also called hCD27 K38A
T2 receptor chain: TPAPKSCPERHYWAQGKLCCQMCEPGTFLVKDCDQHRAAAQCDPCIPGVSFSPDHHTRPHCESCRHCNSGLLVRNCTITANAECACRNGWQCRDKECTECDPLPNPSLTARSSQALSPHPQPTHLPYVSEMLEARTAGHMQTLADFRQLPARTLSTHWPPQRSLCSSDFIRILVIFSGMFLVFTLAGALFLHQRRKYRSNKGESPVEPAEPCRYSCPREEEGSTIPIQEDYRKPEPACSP

The target of the next experiment is T3, G89A.
T3 construct: also called hCD27 G89A
T3 receptor chain: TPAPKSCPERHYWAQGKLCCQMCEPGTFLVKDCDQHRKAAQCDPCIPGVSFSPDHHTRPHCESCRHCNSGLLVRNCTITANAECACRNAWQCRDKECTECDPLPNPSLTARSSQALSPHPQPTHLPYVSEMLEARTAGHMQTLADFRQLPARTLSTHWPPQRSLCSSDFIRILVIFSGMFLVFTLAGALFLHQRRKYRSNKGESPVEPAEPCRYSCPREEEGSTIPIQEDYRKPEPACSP

The next experiment addresses T4, V30A.
T4 construct: also called hCD27 V30A
T4 receptor chain: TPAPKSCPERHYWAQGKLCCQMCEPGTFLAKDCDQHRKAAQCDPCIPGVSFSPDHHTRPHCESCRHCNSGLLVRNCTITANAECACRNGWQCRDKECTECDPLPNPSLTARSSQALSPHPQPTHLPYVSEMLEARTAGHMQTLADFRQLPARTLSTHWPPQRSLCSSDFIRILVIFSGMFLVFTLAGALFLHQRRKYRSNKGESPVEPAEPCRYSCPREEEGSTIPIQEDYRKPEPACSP

Another experiment addresses T5, W90A.
T5 construct: also called hCD27 W90A
T5 receptor chain: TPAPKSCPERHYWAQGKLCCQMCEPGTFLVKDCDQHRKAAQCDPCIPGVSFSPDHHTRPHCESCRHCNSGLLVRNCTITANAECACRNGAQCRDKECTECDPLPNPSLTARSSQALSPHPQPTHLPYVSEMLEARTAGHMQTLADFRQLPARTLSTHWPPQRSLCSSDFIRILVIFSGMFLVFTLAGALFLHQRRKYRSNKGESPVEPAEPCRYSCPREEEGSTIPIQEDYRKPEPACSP

The next experiment has as its target T6, N88A.
T6 construct: also called hCD27 N88A
T6 receptor chain: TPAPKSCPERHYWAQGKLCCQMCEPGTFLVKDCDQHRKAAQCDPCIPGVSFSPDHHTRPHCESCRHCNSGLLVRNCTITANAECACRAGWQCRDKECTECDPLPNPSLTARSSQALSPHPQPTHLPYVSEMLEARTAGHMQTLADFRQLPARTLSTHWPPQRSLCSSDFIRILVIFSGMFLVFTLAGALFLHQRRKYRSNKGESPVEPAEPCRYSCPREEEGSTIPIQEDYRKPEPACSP

The target in the next experiment is T7, Q15A.
T7 construct: also called hCD27 Q15A
T7 receptor chain: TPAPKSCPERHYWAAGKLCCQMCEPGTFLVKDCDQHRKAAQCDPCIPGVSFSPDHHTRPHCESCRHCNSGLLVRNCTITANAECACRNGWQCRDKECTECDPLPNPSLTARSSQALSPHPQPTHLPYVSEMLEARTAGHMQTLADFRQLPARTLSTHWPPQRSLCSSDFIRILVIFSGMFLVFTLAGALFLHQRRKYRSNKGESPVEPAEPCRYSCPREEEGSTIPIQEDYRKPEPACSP

In another experiment the target is T8, S63A.
T8 construct: also called hCD27 S63A
T8 receptor chain: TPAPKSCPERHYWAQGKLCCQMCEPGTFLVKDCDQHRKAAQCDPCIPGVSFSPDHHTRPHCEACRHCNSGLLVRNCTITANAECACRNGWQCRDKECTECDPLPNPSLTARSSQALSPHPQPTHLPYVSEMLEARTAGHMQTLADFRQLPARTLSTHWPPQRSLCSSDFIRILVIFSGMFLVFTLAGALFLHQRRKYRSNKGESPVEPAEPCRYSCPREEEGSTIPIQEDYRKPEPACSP

The next experiment deals with T9, P8A.
T9 construct: also called hCD27 P8A
T9 receptor chain: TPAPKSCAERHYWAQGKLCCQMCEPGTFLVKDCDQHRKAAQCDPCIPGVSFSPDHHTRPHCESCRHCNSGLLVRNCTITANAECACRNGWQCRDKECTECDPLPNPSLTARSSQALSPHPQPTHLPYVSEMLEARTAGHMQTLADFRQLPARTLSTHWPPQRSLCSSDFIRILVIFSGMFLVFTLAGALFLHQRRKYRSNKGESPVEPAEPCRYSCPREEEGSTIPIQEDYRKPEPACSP

Another experiment concerns the target T10, R10A.
T10 construct: also called hCD27 R10A
T10 receptor chain: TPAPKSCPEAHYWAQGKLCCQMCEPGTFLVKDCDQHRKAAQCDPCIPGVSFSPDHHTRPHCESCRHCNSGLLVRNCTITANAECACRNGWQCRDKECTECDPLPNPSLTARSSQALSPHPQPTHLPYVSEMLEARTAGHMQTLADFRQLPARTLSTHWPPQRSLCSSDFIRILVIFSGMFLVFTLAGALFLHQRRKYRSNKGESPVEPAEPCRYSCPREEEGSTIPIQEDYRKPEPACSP

B1: hCD27.15-6B (antibody, human IgG4 S228P, kappa, V domains shown)
VH: QVQLVQSGAEVKKPGASVKVSCKASGFIIKATYMHWVRQAPGQRLEWMGRIDPANGETKYDPKFQVRVTITADTSASTAYMELSSLRSEDTAVYYCARYAWYFDVWGQGTLVTVSS
VL: DIQMTQSPSSLSASVGDRVTITCRASENIYSFLAWYQQKPGKAPKLLIYHAKTLAEGVTSRFSGSGSGTDFTLTISSLQPEDSATYYCQHYYGSPLTFGQGTRLEIKR
notes: also called hCD27.15 (humanized 6B); humanized hCD27.15 (human IgG4, Clone 6B)
As for B1, the “binding, WT hCD27 = 100 (GM FITC)” value is 69% with V49A; 97.6% with K38A; 97.4% in the experiment with G89A; 82.6% with V30A; 93.8% with W90A; 132% in the experiment with N88A. Besides, the “binding, WT hCD27 = 100 (GM FITC)” value turned out to be 98.6% with Q15A, 104% with S63A, 63% in the experiment with P8A and 58.9% with R10A.
